Test results as given in patent publication US20220356229A1 (published 2022).

B1: anti-coronavirus antibody 571 (antibody, V domains shown)
VH: EVQLVESGGGLVQPGGSLRLSCAASGFTFSTYWMTWVRQAPGKGLEWVANIKHDGSGKYHVDSVKGRFTISRDNAKNSLYLQMNSLRAEDTAVYYCTRDEGGWYDYWGQGTLVTVSS
VL: QSALTQPASVSGSPGQSITISCTGTSSDVGSYNPVSWYQQHPGKAPKVMIYEGSKRPSGVSNRFSGSKSGNTASLTISGLQAEDEADYYCCSYARSSTFVVFGGGTKLTVL
B2: antibody 571 (antibody, V domains shown)
VH: EVQLVESGGGLVQPGGSLRLSCAASGFTFSTYWMTWVRQAPGKGLEWVANIKHDGSGKYHVDSVKGRFTISRDNAKNSLYLQMNSLRAEDTAVYYCTRDEGGWYDYWGQGTLVTVSS
VL: QSALTQPASVSGSPGQSITISCTGTSSDVGSYNPVSWYQQHPGKAPKVMIYEGSKRPSGVSNRFSGSKSGNTASLTISGLQAEDEADYYCCSYARSSTFVVFGGGTKLTVL
B3: anti-SARS-CoV-2 antibody 1444 (antibody, V domains shown)
VH: QVQLVQSGAEVKKPGASVKVSCKASGYTFTAYYMHWVRQAPGQGLEWMGWINPNSDDTNYAQKFQGRVTMTRDTSISTAYMELSRLRSDDTAVYYCAREEGVFTIGDRYFDLWGRGTLVSVSS
VL: QTVVTQEPSFSVSPGGTVTLTCGLSSGSVSTSYYPSWYQQTPGQAPRTLIYNTNTRSSGVPDRFSGSILGNKAALTITGAQADDESDYYCVLYMGSGIWVFGGGTKLTVLG
B4: anti-SARS-CoV-2 antibody 896 (antibody, V domains shown)
VH: EVQLVESGGGVVQPGGSLRLSCAASGFTFDDYAMHWVRQVPGKGLEWVSLISGDGGSTYYADSVKGRFTISRDNSKNSLYVQMNSLRTEDTALYYCVKDRGGSGWDLNHYYYGMDVWGQGTTVTVSS
VL: DIQLTQSPSFLSASVGDRVTVTCRASQGISSYLAWYQQKPGKAPKLLIYAAYTLQSGVPSRFSGSGSETEFTLTISSLQPEDFATYYCQQVKSYPLTFGGGTKVEIKR
B5: antibody 422 (antibody, V domains shown)
VH: QVQLVQSGSELKKPGASVKVSCKASGYTFTSYAMNWVRQAPGQGLEWMGWINTNTGNPTYAQGFTGRFVFSLDTSVSTTYLQISSLKAEDTAVYYCARVIGVVTYYYYGMDVWGQGTTVTVSS
VL: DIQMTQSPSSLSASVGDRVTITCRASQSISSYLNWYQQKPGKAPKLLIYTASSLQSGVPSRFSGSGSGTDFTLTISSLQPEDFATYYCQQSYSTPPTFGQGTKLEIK
B6: antibody 564 (antibody, V domains shown)
VH: QVHLVESGGGVVQPGKSLRLSCAASGFIFSSFGMHWVRQPPGKGLEWLAVVSYDGSVTKYSDSFEGRFTISRDNSKNTLYLQMDSLRPEDTAVYYCAKGQGTNLLHYWGQGILVTVSS
VL: DVVLSQSPLSLPVTLGQPASISCRSSESLVYTDGDTYLHWFHQRPGQSPRRLIFKVSHRESGVPDRISGSGSGTDFTLKISRVEAEDVGVYYCMQGTHWPFTFGPGTKVDIK
B7: anti-SARS-CoV-2 antibody 1015 (antibody, V domains shown)
VH: EVQLVESGGGLVQPGGSLRLSCAASGFTFSSYWMHWVRQAPGKGLVWVSHINSDGSSTSYADSVKGRFTISRDNAKNTLYLQMNSLRAEDTAVYYCARGLRYFDLDVWGQGTTVTVSS
VL: QSVLTQPPSVSEAPRQRVTISCSGSSSNIGNNAVNWYQQLPGKAPKLLIFYDDLLPSGVSDRFSGSKSGTSASLAISGLQSEDEADYYCAAWDDSLNGGVFGGGTKLTVLG
B8: anti-SARS-CoV-2 antibody 1495 (antibody, V domains shown)
VH: QVQLVESGGGVVQPGRSLRLSCTASGFTFSSYAMHWVRQAPGKGLEWVAVISYDGNNKYYGDSVKGRFTISRDNSKNTLYLQMNSLRAEDTAVYYCAKGADTPHYSGYHFLSVGYYFYGMDVWGQGTTVTVSS
VL: DIQMTQSPSSLSASVGDRVTITCRASQSISYYLNWYQQKPGKAPQLLIYAASSLQSGVPSRFSGSRSGTDFTLTISSLQPEDFATYYCQQSYSTPFTFGPGTKVDIKR
B9: antibody 569 (antibody, V domains shown)
VH: QVQLVESGGGVVQPGRSLRLSCAASGFTFSSYAMHWVRQAPGKGLEWVAVISYDGSNKYYADSVKGRFTISRDNSKNTLYLQMNSLRAEDTAVYYCARASSGGYQGPFDPWGQGTLVTVSS
VL: EIVLTQSPATLSLSPGERATLSCRASQSVSSYLAWYQQKPGQAPRLLIYDASNRATGIPARFSGSGSGTDFTLTISSLEPEDFAVYYCQQRSSPFGPGTKVDIK
B10: antibody 566 (antibody, V domains shown)
VH: QVQLVQSGAEVKKPGASVKVSCKASGYTFTSYAMHWVRQAPGQRLEWMGWINAGNGNTKYSQKFQGRVTITRDTSASTAYMELSSLRSEDTAVYYCARDLGVAVTLHPADFDYWGQGTLVTVSS
VL: QSVLTQPPSVSGAPGQRVTISCTGSSSNIGAGYDVHWYQQLPGTAPKLLIYDNSNRPSGVPDRFSGSKSGTSASLAITGLQAEDEADYYCQSYDSSLSAVVFGGGTKLTVL
B11: antibody 556 (antibody, V domains shown)
VH: QVQLVESGGGVVQPGRSLRLSCAASGFTFSSYAMHWVRQAPGKGLEWVAVISYDGSDKYYADSVKGRVTISRDNSKNTLYLQMNSLRVEDTAVFYCAKDDCSGGVCFPDYWGQGTLVTVSS
VL: QSALTQPASVSGSPGQSITISCTGTSSDVGGYNYVSWYQQHPGKAPKLMIYEVSIRPSGVSNRFSGSKSGNTASLTISGLQAEDEAAYYCSSYTSSSTLVFGGGTKLTVL
B12: anti-SARS-CoV-2 antibody 894 (antibody, V domains shown)
VH: QVQLVQSGAEVKKPGASVKVSCKVSGYTLPELSIHWVRQAPGKGLEWMGGFDPENAETIYTQKFQGRLTMTEDTSTDTAYMELSSLRSEDTAMYYCATSFVLMPAALGDYSYYYGMDVWGQGTTVTVSS
VL: not shown
B13: anti-SARS-CoV-2 antibody 1538 (antibody, V domains shown)
VH: EVQLLESGGGLVQPGGSLRLSCAASGFTFSSYAMSWVRQAPGKGLEWVSGISDSGGSTYYADYVKGRFTISRDNSKDTLYLQMNSLRAEDTAVYYCAKDRGNEYALTHYYYYAMDVWGQGTTVTVSS
VL: DIQMTQSPSSLSASVGDRVTITCRASQSISSYLNWYQQKPGKAPKLLIYAAYSLQSGVPSRFSGGGSGTDFTLTISSLQPEDFATYFCQQSYSTPITFGQGTRLEIKR
B14: antibody 563 (antibody, V domains shown)
VH: QVQLVESGGGVVQPGRSLRLSCAASGFTFSSYAMHWVRQAPGKGLEWVAVISDDGSNKYYADSVKGRFTISRDNSKNTLYLQMNSLRAEDTAVYYCARDIVATIRRLFDYWGQGTLVTVSS
VL: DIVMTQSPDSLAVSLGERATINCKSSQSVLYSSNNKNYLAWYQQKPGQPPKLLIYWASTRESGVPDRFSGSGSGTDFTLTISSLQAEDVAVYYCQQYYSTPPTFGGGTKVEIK
B15: antibody 576 (antibody, V domains shown)
VH: QVQLVESGGGVVQPGRSLRLSCAASGFTFSSYAMHWVRQAPGKGLEWVAVISYDGSNKYYADSVKGRFTISRDNSKNTLYLQMNSLRAEDTAVYYCAKAGGGSYYRGFDYWGQGTLVTVSS
VL: DIQLTQSPSFLSASVGDRVTITCRASQGISSYLAWYQQKPGKAPKLLIYAASTLQSGVPSRFSGSGSGTEFTLTISSLQPEDFATYYCQQLNSYPTFGPGTKVDIK
B16: anti-SARS-CoV-2 antibody 1075 (antibody, V domains shown)
VH: QVQLVQSGAEVKKPGASVKVSCKVSGYTLIELSMHWVRQAPGKGLEWMGGFDPEDGETIYAQKFQGRVTMTEDTSTDTAYMELSSLRSEDTAVYYCATEWAYYGSGSYLGYWGQGTLVTVSS
VL: EIVMTQSPATLSVSPGERATLSCRASQSVSSNLAWFQQKPGQAPRLLIYGASTRVTVIPARFSGSGSGTEFTLTISSLQSEDFAVYYCQQYNNWPRTFGQGTKVEIKR
B17: anti-SARS-CoV-2 antibody 1404 (antibody, V domains shown)
VH: QITLKESGPTLVKPTQTLTLTCTFSGFSLSISGVGVGWLRQPPGKALEWLALIYWDDDKRYSPSLKSRLTISKDTSKNQVVLKMTNIDPVDTATYYCAHHSISTIFDHWGQGTLVTVSS
VL: QSALTQPASVSGSPGQSITISCTATSSDVGDYNYVSWYQQHPGKAPKLMIFEVSDRPSGISNRFSGSKSGNTASLTISGLQAEDEADYYCSSYTTSSAVFGGGTKLTVLG
B18: antibody 560 (antibody, V domains shown)
VH: EVQLVESGGGLVQPGGSLRLSCAASGFTISSNYMSWVRQAPGKGLEWVSVIYSGGSTYYADSVKGRFTISRDNSKNTLYLQMNSLRAEDTAVYYCAREEGEWEKDYYGMDVWGQGTTVTVSS
VL: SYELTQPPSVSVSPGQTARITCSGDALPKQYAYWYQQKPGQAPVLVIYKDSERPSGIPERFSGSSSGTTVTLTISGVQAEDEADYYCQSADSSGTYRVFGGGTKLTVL
B19: anti-SARS-CoV-2 antibody 851 (antibody, V domains shown)
VH: QITLKESGPTLVKPTQTLTLTCTFSGFSLSTNGVGMGWIRQPPGKALEWLALIYWDDDQFYSPSLKSRLTITRDTSKNQVVLTMTNMDPVDTATYYCAQAFYESFGFYSWGQGTLVTVSS
VL: NFMLTQPHSVSESPGKTVIISCTRSIGSIASNYVQWYQQRPGSAPTIVVFEDNERPSGVPDRFSGSIDRSSNSASLTISGLKTEDEADYYCQSYDGSSELVFGGGTKLTVLG
B20: antibody 421 (antibody, V domains shown)
VH: QVQLVESGGGVVQPGRSLRLSCAASGFTFSTYAMHWVRQAPGKGLEWVAVISYDGSNKYYADSVKGRFTISRDNSKNTLYLQMNSLRAEDTAVYYCARGYGSGSYYPLYLYWGQGTLVTVSS
VL: not shown

What was measured:
[1] = target: SARS-CoV Spike protein (SARS-CoV, UniProt P59594 14-1190)
[2] = target: SARS-CoV-2 full length Spike protein, wild type (SARS-CoV-2, UniProt P0DTC2 14-1208)
[3] = target: T1, SARS-CoV full length Spike protein, wild type, expressed on CHO cells (SARS-CoV, UniProt P59594 14-1255)
[4] = target: SARS-CoV-2 full length Spike protein, wild type, expressed on CHO cells (SARS-CoV-2, UniProt P0DTC2 14-1273)
[5] = target: T1, SARS-CoV full length Spike protein, …; experiment: flow cytometry, live cell assay on transfected CHO cells
[6] = target: SARS-CoV-2 full length Spike protein, wild type (SARS-CoV-2, UniProt P0DTC2 14-1208); remark: listed apart in the source

Binder | median fluorescence intensity, fold over isotype control [2] | median fluorescence intensity, fold over isotype control [3] | median fluorescence intensity, fold over isotype control [4] | binding result [5] | further results
B1 |  |  |  |  | binding signal (fold over isotype control) [1]: 1.28 fold over isotype control
B2 | 338 fold over isotype |  |  |  | 
B3 |  | 0.77 fold over isotype | 48.7 fold over isotype | no binding | 
B4 |  | 0.69 fold over isotype | 70.3 fold over isotype | no binding | 
B5 |  |  |  |  | median fluorescence, fold over isotype [6]: 1250 fold over isotype control
B6 | 523 fold over isotype |  |  |  | 
B7 |  | 0.89 fold over isotype | 30.5 fold over isotype | no binding | 
B8 |  | 0.72 fold over isotype | 57.3 fold over isotype | no binding | 
B9 | 478 fold over isotype |  |  |  | 
B10 | 613 fold over isotype |  |  |  | 
B11 | 625 fold over isotype |  |  |  | 
B12 |  | 0.67 fold over isotype | 77.7 fold over isotype | no binding | 
B13 |  | 0.75 fold over isotype | 67.5 fold over isotype | no binding | 
B14 | 513 fold over isotype |  |  |  | 
B15 | 566 fold over isotype |  |  |  | 
B16 |  | 0.86 fold over isotype | 78.7 fold over isotype | no binding | 
B17 |  | 0.86 fold over isotype | 71.2 fold over isotype | no binding | 
B18 | 991 fold over isotype |  |  |  | 
B19 |  | 0.62 fold over isotype | 60 fold over isotype | no binding | 
B20 |  |  |  |  | median fluorescence, fold over isotype [6]: 505 fold over isotype control
